Consider 12 substances from article PMC9365671.

The target of test [1] is KIF5C-KLC1 heterotetramer (human) (UniProt O60282).
In test [2] the target is taxol-stabilised microtubules of porcine brain tubulin (porcine) (UniProt P02550). The experiment in a line: single-molecule TIRF microscopy on microtubules; biotinylated taxol-stabilised MTs held on streptavidin-coated glass, motor in solution; 90 mM HEPES-KOH pH 7.6, 50 mM KCH3COO, 2 mM Mg(CH3COO)2, 1 mM EGTA, 10% glycerol, 2 mM ATP; landing rate = processive and non-processive events per MT length, time and motor concentration.

For test [3] the target is unchanged. Described as above. More on the design: landing rate: unit not given here.

Like-named read-outs stand apart in the source and are kept apart here.

Sequence of KIF5B-Δhinge (Δ505-610)-mScarlet-StrepII (P33176 other isoform, or with tags, fused parts or gaps mutant): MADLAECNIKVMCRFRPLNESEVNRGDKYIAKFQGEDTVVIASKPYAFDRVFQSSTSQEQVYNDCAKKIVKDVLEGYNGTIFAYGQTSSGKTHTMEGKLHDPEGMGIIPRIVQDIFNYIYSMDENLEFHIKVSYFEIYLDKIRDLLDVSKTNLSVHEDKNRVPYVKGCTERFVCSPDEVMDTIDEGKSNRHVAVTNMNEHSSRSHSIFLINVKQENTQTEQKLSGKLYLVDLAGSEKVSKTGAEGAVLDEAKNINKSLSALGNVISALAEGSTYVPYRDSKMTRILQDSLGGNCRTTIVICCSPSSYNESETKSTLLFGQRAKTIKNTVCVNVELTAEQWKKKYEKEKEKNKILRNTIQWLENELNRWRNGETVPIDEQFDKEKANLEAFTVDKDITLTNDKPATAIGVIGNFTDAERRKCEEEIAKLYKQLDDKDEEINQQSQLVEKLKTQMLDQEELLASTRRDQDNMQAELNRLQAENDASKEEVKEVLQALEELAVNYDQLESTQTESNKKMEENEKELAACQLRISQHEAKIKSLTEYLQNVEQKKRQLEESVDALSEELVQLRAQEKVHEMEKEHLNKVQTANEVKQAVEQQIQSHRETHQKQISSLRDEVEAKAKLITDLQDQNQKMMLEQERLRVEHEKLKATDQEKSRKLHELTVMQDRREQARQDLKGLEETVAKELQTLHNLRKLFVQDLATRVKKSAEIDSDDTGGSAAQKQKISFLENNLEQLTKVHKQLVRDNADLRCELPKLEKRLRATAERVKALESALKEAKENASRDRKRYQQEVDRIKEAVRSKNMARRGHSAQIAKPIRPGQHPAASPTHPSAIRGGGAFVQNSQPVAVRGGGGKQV
Sequence of full-length human KIF5B-mScarlet-StrepII (P33176 whole entry): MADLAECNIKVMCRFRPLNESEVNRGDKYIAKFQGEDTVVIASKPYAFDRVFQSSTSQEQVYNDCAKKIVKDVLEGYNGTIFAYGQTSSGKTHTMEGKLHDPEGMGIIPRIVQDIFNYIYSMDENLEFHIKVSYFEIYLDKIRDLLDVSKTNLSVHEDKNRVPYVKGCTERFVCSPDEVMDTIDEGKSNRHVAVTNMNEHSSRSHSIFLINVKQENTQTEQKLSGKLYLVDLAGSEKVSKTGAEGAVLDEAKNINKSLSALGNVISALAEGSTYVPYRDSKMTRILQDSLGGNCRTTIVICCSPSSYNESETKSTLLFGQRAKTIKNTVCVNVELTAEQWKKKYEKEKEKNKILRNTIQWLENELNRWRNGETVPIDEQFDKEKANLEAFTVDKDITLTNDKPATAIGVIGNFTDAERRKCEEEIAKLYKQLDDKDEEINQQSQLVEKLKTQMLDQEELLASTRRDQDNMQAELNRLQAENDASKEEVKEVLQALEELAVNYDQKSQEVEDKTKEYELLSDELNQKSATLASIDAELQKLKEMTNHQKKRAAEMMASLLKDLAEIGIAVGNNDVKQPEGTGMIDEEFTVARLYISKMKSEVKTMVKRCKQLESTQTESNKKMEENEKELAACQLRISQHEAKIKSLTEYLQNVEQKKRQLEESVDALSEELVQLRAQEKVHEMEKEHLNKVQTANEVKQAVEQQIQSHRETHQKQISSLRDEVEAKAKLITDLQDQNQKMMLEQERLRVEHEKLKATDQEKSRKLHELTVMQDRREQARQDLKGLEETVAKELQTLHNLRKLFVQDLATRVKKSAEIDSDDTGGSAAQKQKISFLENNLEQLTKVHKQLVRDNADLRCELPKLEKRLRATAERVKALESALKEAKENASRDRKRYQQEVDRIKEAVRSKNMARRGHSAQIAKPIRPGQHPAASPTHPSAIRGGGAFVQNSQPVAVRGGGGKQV
Sequence of KIF5C-KLC1 heterotetramer (human) (O60282 whole entry, chain 1 of 2): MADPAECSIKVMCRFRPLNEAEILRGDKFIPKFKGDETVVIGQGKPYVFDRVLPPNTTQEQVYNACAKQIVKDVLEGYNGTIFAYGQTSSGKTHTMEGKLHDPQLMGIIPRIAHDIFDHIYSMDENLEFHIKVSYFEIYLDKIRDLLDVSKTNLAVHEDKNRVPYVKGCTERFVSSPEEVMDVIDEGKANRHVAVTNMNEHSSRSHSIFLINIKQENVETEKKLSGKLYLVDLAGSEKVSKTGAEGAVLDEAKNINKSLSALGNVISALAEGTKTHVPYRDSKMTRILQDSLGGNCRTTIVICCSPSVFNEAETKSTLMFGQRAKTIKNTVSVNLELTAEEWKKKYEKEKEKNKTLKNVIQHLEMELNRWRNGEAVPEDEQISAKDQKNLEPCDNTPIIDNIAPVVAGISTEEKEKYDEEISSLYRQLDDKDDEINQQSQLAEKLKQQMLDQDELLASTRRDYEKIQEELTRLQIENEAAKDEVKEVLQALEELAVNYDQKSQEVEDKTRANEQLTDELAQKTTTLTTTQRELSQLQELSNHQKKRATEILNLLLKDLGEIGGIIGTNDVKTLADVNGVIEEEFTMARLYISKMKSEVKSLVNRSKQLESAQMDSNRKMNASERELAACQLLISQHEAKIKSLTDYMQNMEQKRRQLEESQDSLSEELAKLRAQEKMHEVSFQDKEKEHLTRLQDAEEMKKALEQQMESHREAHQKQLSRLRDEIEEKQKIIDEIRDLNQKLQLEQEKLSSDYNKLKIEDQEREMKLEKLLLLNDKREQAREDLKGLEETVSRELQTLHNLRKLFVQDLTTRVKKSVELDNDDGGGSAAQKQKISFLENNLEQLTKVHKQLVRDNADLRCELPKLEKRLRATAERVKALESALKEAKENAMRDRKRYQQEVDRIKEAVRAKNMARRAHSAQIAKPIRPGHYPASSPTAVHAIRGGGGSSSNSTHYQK
Sequence of KIF5C-KLC1 heterotetramer (human) (Q07866 whole entry, chain 2 of 2, further chain): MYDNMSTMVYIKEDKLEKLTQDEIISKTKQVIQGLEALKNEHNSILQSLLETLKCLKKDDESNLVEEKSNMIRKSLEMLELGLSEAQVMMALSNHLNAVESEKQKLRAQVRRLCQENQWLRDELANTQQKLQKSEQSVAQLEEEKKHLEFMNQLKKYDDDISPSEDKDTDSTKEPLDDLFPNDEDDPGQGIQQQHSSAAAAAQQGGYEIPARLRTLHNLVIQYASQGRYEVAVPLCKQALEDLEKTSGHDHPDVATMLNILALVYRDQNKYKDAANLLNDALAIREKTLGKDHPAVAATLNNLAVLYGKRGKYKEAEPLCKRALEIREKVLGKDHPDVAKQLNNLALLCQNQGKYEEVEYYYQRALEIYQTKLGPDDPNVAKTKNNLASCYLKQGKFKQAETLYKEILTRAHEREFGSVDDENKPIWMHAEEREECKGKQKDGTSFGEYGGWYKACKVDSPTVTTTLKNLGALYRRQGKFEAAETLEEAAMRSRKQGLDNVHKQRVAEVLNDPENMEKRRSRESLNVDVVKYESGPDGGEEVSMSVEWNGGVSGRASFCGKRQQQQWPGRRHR
Sequence of tail-truncated human KIF5C (aa 1-416)-mScarlet-StrepII (O60282 1-416): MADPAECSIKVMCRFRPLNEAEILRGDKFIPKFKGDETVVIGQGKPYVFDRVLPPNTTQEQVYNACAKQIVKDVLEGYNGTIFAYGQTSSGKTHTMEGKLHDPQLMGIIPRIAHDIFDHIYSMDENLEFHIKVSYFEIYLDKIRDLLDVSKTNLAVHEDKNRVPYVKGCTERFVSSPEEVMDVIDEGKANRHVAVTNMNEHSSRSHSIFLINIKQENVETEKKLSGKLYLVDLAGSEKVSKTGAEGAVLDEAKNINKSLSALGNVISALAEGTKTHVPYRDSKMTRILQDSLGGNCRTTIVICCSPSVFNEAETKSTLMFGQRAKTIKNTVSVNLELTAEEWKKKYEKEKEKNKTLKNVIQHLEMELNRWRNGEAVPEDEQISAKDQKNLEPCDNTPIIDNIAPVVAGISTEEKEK
Sequence of tail-truncated human KIF5A (aa 1-416)-mScarlet-StrepII (Q12840 1-416): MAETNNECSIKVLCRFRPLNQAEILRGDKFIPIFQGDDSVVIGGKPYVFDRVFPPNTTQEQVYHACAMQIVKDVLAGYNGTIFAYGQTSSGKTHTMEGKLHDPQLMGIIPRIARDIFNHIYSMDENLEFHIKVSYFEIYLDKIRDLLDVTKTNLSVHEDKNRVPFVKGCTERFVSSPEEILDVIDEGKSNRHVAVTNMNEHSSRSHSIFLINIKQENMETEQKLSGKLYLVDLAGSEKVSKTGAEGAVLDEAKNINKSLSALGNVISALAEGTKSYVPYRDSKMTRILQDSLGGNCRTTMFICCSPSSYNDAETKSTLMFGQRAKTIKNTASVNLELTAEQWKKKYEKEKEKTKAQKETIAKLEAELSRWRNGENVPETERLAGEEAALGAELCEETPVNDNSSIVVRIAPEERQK
Sequence of tail-truncated human KIF5B (aa 1-420)-mScarlet-StrepII (P33176 1-420): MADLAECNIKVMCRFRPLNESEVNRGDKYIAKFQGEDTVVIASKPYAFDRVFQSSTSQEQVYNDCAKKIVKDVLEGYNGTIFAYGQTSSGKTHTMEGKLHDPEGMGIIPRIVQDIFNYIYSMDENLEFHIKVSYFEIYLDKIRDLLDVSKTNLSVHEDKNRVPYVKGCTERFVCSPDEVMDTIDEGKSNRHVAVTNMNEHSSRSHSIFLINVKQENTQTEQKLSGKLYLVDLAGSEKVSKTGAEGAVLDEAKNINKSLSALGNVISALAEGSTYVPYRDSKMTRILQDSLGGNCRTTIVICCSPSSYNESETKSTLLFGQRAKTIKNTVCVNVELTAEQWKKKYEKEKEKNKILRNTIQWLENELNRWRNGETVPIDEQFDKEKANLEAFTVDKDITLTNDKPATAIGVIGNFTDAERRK
Sequence of KIF5B-IAK/AAA-mScarlet-StrepII (P33176 whole entry I920A/K922A): as the sequence (P33176 whole entry) above, with I920A, K922A counted along it

On to “6xHis-2xStrepII-sfGFP-nesprin-4 (aa 1-240) WD/AA (from UniProt Q8N205-2 1-240) (domain or fragment)”, for which, in test [1], the landing rate of 10 nM KIF5C-KLC1 on MTs (ATP) with 500 nM nesprin-4 WDAA (0.1 without) was 0.2 /μm/s/μM. Regarding “KIF5B-E178A-mScarlet-StrepII (from UniProt P33176 1-963) (natural protein)”, the landing rate in test [2] is 6.2 /μm/s/μM. “full-length human KIF5B-mScarlet-StrepII (from UniProt P33176 1-963) (natural protein)”: the landing rate (Motors/μm/s/μm) in test [3] worked out at 0.08. As for “tail-truncated human KIF5A (aa 1-416)-mScarlet-StrepII (from UniProt Q12840 1-416) (domain or fragment)”, in test [3], the landing rate (motors/µm/s/µM) turned out to be 162. On to “KIF5C-KLC1 heterotetramer (from UniProt O60282 1-957; Q07866 1-573) (complex)”, for which the landing rate in test [3] is 0.06. Consider “KIF5B-H129A-mScarlet-StrepII (from UniProt P33176 1-963) (natural protein)”, for which the landing rate in test [2] was 5.4 /μm/s/μM. On the same count and under the same terms, with “KIF5B-IAK/AAA-mScarlet-StrepII (from UniProt P33176 1-963) (natural protein)” the figure was 7 /μm/s/μM. As for “KIF5A-KLC1 heterotetramer (from UniProt Q12840 1-1032; Q07866 1-573) (complex)”, in test [3], the landing rate amounted to 0.1. In turn, “KIF5B-KLC1 heterotetramer (from UniProt P33176 1-963; Q07866 1-573) (complex)” showed a landing rate (Motors/μm/s/μm) in test [3] of 0.06. Regarding “KIF5B-Δhinge (Δ505-610)-mScarlet-StrepII (from UniProt P33176 1-963) (natural protein)”, the landing rate in test [2] was 22.8 /μm/s/μM. Regarding “tail-truncated human KIF5C (aa 1-416)-mScarlet-StrepII (from UniProt O60282 1-416) (domain or fragment)”, in test [3], the landing rate (motors/µm/s/µM) was 147. Substance “tail-truncated human KIF5B (aa 1-420)-mScarlet-StrepII (from UniProt P33176 1-420) (domain or fragment)” showed a landing rate (motors/µm/s/µM) in test [3] of 146.
